Laboratory results reported in patent US20140342369A1.

What was measured:
[1] = molecular target: LYRIC (Mtdh, Metadherin) (mouse) (UniProt Q80WJ7); assay: anti-HA pulldown of tagged Gpr107 from whole cell lysate, mass spectrometry of eluted proteins
[2] = molecular target: Guanine nucleotide-binding protein G(i) subunit alpha-2 (Gnai2) (mouse) (UniProt P08752); assay: as above
[3] = molecular target: Solute carrier family 2, facilitated glucose transporter member 3 (Slc2a3) (mouse) (UniProt P32037); assay: as above
UniProt P32037, sequence (P32037 whole entry): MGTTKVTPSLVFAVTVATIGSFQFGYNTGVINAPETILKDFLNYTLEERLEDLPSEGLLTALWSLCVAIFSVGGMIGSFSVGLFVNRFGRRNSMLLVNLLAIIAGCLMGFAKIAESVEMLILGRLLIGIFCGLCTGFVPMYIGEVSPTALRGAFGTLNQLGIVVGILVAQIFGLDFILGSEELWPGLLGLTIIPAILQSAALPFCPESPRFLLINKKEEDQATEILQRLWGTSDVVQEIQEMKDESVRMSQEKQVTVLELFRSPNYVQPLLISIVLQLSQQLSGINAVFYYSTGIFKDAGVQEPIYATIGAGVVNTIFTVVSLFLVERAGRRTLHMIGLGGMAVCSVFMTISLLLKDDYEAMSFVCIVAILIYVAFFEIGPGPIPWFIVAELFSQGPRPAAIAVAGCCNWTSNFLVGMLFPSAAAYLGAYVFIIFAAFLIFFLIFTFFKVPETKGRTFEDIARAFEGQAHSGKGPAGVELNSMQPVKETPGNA

Calnexin (Canx1) (mouse) [4] = molecular target: Calnexin (Canx1) (mouse) (UniProt P35564); assay: as above
UniProt P35564, sequence (P35564 21-591 limits assumed): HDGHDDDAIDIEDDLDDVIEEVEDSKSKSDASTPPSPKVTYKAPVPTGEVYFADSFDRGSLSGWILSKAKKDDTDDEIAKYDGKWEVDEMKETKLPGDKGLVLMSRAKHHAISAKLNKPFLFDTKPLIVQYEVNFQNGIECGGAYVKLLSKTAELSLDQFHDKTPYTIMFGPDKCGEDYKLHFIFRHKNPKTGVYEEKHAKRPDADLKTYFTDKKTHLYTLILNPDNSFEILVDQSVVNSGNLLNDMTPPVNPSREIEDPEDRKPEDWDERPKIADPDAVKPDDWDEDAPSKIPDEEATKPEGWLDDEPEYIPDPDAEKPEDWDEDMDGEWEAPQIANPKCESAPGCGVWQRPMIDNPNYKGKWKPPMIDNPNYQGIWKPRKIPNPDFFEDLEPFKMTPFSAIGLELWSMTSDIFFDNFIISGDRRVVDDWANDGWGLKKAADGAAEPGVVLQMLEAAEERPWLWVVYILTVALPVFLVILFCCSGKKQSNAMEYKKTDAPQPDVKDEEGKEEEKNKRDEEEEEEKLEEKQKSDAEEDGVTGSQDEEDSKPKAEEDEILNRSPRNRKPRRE

[5] = molecular target: Neurabin-1 (Ppp1r9a) (mouse) (UniProt Q7TN74); assay: as above
UniProt Q7TN74, sequence (Q7TN74 entry or part of it): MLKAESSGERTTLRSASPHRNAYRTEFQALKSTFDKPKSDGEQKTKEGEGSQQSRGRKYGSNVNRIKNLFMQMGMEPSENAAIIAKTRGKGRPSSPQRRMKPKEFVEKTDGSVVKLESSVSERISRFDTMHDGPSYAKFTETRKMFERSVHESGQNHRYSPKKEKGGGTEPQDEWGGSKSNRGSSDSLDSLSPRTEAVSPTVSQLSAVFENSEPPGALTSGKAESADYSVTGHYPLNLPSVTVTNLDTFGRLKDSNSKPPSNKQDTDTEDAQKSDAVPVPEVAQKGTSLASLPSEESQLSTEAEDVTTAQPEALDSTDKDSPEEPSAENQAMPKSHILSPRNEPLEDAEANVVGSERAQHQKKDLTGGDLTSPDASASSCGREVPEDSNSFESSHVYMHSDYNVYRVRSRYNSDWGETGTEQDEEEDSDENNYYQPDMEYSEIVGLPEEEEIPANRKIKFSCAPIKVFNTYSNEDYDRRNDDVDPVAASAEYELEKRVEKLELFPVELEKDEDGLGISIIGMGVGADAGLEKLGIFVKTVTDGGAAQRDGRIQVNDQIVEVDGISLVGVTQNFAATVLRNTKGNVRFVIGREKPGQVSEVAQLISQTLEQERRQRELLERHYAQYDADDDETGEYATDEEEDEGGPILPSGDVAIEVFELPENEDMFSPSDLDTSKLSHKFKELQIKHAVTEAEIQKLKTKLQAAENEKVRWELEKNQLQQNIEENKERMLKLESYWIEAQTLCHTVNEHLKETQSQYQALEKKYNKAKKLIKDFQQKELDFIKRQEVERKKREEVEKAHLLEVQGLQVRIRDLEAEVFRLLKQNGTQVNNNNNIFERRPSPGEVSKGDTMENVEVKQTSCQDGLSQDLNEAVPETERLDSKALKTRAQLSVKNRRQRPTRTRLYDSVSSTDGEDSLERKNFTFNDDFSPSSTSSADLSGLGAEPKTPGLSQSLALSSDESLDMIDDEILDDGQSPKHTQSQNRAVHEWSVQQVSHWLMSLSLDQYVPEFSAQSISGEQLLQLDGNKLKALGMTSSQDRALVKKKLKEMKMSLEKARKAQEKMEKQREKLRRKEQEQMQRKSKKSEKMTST

[6] = molecular target: Dolichyl-diphosphooligosaccharide--protein glycosyltransferase SU 1 (Rpn1) (mouse) (UniProt Q91YQ5); assay: as above
UniProt Q91YQ5, sequence (Q91YQ5 26-608 limits assumed): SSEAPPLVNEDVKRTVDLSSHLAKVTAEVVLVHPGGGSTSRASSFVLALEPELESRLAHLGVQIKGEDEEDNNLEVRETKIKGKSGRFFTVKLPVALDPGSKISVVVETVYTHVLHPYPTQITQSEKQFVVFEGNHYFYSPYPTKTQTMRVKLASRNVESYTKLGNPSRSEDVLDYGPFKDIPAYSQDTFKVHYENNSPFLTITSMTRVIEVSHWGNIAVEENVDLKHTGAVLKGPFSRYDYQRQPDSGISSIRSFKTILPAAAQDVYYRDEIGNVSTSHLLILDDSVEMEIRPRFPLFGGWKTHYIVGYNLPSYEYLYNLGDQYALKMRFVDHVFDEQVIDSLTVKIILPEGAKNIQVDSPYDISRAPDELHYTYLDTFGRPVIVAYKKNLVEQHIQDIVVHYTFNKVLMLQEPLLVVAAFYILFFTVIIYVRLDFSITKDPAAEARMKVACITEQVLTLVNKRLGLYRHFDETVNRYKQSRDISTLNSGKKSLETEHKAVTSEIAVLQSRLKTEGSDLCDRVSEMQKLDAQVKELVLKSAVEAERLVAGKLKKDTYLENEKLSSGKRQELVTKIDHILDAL

[7] = molecular target: Neurabin-2, Spinophilin (Ppp1r9b) (mouse) (UniProt Q6R891); assay: as above
UniProt Q6R891, sequence (Q6R891 whole entry): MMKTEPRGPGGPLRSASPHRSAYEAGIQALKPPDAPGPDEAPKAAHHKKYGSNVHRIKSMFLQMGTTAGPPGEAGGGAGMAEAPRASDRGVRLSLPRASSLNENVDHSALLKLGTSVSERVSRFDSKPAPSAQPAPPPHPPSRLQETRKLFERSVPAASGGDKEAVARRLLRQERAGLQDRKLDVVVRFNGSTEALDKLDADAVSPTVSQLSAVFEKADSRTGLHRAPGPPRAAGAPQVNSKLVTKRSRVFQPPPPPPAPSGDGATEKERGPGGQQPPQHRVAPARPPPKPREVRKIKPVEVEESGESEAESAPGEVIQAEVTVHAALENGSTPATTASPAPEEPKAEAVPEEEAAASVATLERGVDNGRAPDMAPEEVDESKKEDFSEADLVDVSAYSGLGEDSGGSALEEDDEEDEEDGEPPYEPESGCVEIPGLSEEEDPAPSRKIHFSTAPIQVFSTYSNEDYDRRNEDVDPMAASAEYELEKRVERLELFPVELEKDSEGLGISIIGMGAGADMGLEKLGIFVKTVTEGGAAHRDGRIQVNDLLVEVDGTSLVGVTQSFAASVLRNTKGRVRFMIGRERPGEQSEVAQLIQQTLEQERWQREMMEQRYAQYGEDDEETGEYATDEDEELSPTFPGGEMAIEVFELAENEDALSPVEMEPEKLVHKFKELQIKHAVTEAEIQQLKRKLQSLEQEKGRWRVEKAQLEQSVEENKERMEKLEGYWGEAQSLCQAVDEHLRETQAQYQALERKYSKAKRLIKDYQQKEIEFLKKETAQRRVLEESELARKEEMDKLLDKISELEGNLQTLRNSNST

[8] = molecular target: LYRIC (Mtdh, Metadherin) (mouse) (UniProt Q80WJ7); assay: control pulldown (background; control not described), mass spectrometry of eluted proteins
[9] = molecular target: Guanine nucleotide-binding protein G(i) subunit alpha-2 (Gnai2) (mouse) (UniProt P08752); assay: as above
[10] = molecular target: Solute carrier family 2, facilitated glucose transporter member 3 (Slc2a3) (mouse) (UniProt P32037); assay: as above
Calnexin (Canx1) (mouse) [11] = molecular target: Calnexin (Canx1) (mouse) (UniProt P35564); assay: as above
[12] = molecular target: Neurabin-1 (Ppp1r9a) (mouse) (UniProt Q7TN74); assay: as above
[13] = molecular target: Dolichyl-diphosphooligosaccharide--protein glycosyltransferase SU 1 (Rpn1) (mouse) (UniProt Q91YQ5); assay: as above
[14] = molecular target: Neurabin-2, Spinophilin (Ppp1r9b) (mouse) (UniProt Q6R891); assay: as above

UniProt P08752, sequence (P08752 2-355 limits assumed): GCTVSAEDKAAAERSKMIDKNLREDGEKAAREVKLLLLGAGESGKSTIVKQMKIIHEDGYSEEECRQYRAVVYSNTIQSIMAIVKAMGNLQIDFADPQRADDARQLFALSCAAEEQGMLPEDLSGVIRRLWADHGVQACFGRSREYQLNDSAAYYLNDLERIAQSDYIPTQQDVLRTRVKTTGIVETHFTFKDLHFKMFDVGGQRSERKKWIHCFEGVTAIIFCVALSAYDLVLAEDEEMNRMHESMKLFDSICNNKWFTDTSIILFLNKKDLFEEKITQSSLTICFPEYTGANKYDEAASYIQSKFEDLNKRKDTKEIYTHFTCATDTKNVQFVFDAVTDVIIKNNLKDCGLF
UniProt Q80WJ7, sequence (Q80WJ7 whole entry): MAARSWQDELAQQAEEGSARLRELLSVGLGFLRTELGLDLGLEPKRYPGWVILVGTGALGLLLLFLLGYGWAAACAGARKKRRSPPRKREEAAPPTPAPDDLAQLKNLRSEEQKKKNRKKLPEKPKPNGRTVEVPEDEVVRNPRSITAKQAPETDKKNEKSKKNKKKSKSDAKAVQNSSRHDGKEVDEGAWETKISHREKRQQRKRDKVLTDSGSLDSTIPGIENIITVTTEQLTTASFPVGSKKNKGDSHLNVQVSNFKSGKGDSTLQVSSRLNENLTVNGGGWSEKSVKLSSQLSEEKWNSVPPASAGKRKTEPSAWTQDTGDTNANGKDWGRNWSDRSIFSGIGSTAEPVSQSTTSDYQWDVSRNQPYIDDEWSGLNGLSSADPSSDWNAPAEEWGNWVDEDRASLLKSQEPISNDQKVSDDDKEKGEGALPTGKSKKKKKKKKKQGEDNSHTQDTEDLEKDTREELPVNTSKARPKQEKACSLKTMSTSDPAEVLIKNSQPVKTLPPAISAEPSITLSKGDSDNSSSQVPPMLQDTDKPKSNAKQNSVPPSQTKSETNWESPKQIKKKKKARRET

- peptides sample [2]: 19 peptides
- peptides sample [3]: 5 peptides
- peptides sample (Calnexin (Canx1) (mouse) [4]): 7 peptides
- peptides sample [5]: 13 peptides
- peptides sample [6]: 8 peptides
- peptides sample [7]: 136 peptides
- peptides control [9]: 0 peptides
- peptides control [10]: 0 peptides
- peptides control (Calnexin (Canx1) (mouse) [11]): 3 peptides
- peptides control [12]: 0 peptides
- peptides control [13]: 3 peptides
- peptides control [14]: 8 peptides
Substance: C-terminally tagged (mCherry, Ha, myc) version of Gpr107 (G protein coupled receptor 107) (from UniProt Q8BUV8 34-551)
- peptides sample [1]: 46 peptides
- peptides control [8]: 0 peptides
